Biological target: mRFP1-ENLYFQS-(r8)8-Tail
Assay: live imaging of co-transfected HaCATs; client signal inside against outside KG-like granules

sfGFP-dTEVP
partition coefficient (P): 2.1

Reference: patent US20230061804A1
